Test results reported in the supplement of paper PMC12764529.
± gives the half width of the 95% confidence interval.

Key:
[1] = folding stability dG unfold (combined trypsin and chymotrypsin); higher = more stable
Summary of the method: (§1)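 Digests were run with trypsin and chymotrypsin at 11 concentrations in threefold dilutions, plus a no-protease condition, on designed mini-proteins in a PA-tagged cDNA display construct. The mini-proteins were under 80 residues, had no cysteine, and were kept only when AlphaFold2 dimer inter-PAE was above 15. After sequencing, Bayesian fitting of the counts gave K50, from which unfolding free energy was derived against a sequence-predicted unfolded-state K50 and a shared folded-state K50, per protease or combined.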

[2] = folding stability dG unfold from chymotrypsin proteolysis; higher = more stable
Summary of the method: as §1

[3] = folding stability dG unfold from trypsin proteolysis; higher = more stable
Summary of the method: as §1

Sequence | folding stability dG unfold [1] [kcal/mol] | folding stability dG unfold [2] [kcal/mol] | folding stability dG unfold [3] [kcal/mol]
SKYVQVRFPNYTIMVKKRKSPNGKPEVEVMLYNPPNGKMIPVEVKSPEDAEEAVKDAIRAMFPDEELRDLSA [r9_749_TrROS] | 0.687 ± 0.17 | 0.46 ± 0.47 | 0.827 ± 0.09
SLEVARELGLPVERAIPTSVDPFNGRTHLVVLVSLPSRFVRIEVDVRYEPDPDGRLIPRVEVLRIEVFPESA [r9_613_TrMRF] | 3.21 ± 0.05 | 3.67 ± 0.04 | 2.59 ± 0.048
SLKNGDPIMVKIEIEQYNPKNGKPQEQKHSIMIPPGDPVTINIPGLPPGYKVRVEIYPMDGKPIGEHTIPSA [r9_478_TrROS] | 1.48 ± 0.14 | 1.14 ± 0.047 | 1.73 ± 0.12
SLKPGEPRTVEMTMIIPITPDEIAKLFGLDIPPGTYIMVEMRMRVPPNADIEMDPDIHLYDPDDNKWFPISA [r9_349_TrROS] | 2.86 ± 0.22 | 3.29 ± 0.086 | 2.18 ± 0.089
SLLENLKIEEIKEYTLPDGSPAIVIRFGDYTIVFNPGTGELRIYKGDKIIRTITIPFPIPDPNKPEDLAASA [r9_1065_TrMRF] | 3.28 ± 0.084 | 3.405 ± 0.034 | 3.22 ± 0.16
SLPNRPLVPFELELRLPRFEVRVRLYRLPDGSYLLVAEIRFPNGLTARAEFVLDPVTGRIYLVRVEVRPESA [r9_795_TrMRF] | 4.29 ± 0.05 | 4.56 ± 0.05 | 3.82 ± 0.041
SLPYTPSTAELTLTLPGGEVKVKANVYTLPDGSTITIATFPDGSVAVYDPSLGRLVLYDPSTGKPIAVLGSA [r9_970_TrMRF] | 2.32 ± 0.028 | 2.173 ± 0.013 | 2.41 ± 0.038
SLSITVPPDKGLVLVNEGLKDGKVKLFLDDKVEEVEVPAGETLVFEVPPDYKGFKLEVIGDDGVVLSVDGSA [r9_143_TrMRF] | 0.599 ± 0.22 | 0.322 ± 0.29 | 0.627 ± 0.13
SLSKSTPVSSLEEALKIAKEAAEEFEKELGKPYPVLVEVEFEPLEDGSVLVRFKLYRPEEGKYLREIEVGSA [r9_794_TrMRF] | 1.38 ± 0.18 | 1.67 ± 0.2 | 0.874 ± 0.064
SLTLTDPVLVLVEVDLYNPETGAPTKRSLAVLVPPGTPVTVTLPGVHPDARVRVTVYTPNGKPLGEFELPSA [r9_478_TrMRF] | 2.26 ± 0.14 | 2.12 ± 0.12 | 2.1 ± 0.13
SMEDMSVEELLELLREKLREAREKGKSLEDIKITIVIVAETEEEKEAIAKALKEEFPEIKEIKIEVLPPESA [r9_341_TrROS_Hall] | 2.92 ± 0.26 | 2.64 ± 0.15 | 3.06 ± 0.14
SMEEELPPKVTEVVVKVPLSPDASPEEIAAARALAAELAAALEAAGYRDVEVTVEPTEPGALVIRARVVVSA [r9_865_JUSTAS] | 3.908 ± 0.034 | 4.36 ± 0.057 | 2.79 ± 0.036
SMEEFAKSLPDVKIETKPLSPDEIEITVYIPSDPEKAKKVEEIVKKLAEEIEKKTGIKVKVTFKPVPPEESA [r9_1099_JUSTAS] | 3.59 ± 0.68 | 3.32 ± 0.21 | 3.24 ± 0.24
SMEELLEKALEEAKEAAEKGEKTVIIEIRVDGKTFRIEIDVETGEIVKIEKEKREDGSEIFRIEIKLPEPSA [r9_308_TrROS_Hall] | 1.3 ± 0.39 | 1.61 ± 0.086 | 0.695 ± 0.07
SMEIRIKEVNEDGYLVIEIRVLSEDGKELTPEEVEELAEEIAAELKEKFPDVKVTVERLEDGTVRIVVEPSA [r9_485_TrROS_Hall] | 2.89 ± 0.22 | 2.65 ± 0.15 | 3.19 ± 0.15
SMETPPEELVERVREYLASQGYTVTSVEVTPLPDGSVRVEVTATPPDASTTLTITVTVPPDGTVVVEVTAQS [r1_460_JUSTAS] | 5.3 ± 0.15 | 5.26 ± 0.12 | 3.76 ± 0.2
SMETVELRVRVRVFNPETGELVEEIEVTVTLPKGMTLEEALRRAREALREALERLLRPPEPVLDEDGRLVSA [r9_454_TrROS_Hall] | 3.99 ± 0.14 | 4.26 ± 0.19 | 3.66 ± 0.12
SMEVEFDPENRTIVATVPEGVDPLAVAATLLAVVRELFDSGPVRLIVTNGDEVLEYLLGEDVLEVRPAGESA [r9_224_TrMRF] | 4.01 ± 0.1 | 4.21 ± 0.11 | 3.26 ± 0.11
SMEVVEEFTLPNGTRITLTKNEDGTVTVTLETTVKNPETGKTTTKTVTITVKLEPGEEYSLEELLATLLSSA [r9_614_TrROS_Hall] | 3.7 ± 0.078 | 3.77 ± 0.039 | 3.5 ± 0.12
SMEVYTEETEEKSPTPLRRRTTTTTVVTRDGSRTVVTVETRVELEPVPPVPPRPLPPIYTPENREVNILLSA [r9_965_JUSTAS] | 1.38 ± 0.73 | 0.51 ± 0.81 | 1.54 ± 0.17
SMFKNVKSVHIYQDPIKGNNLIIVAETEEGTVELELPEDKAIEFLNTLKEKGFDIKVTHVEYLPVSPEYGSA [r9_607_TrMRF] | 2.36 ± 0.081 | 2.453 ± 0.011 | 2.19 ± 0.064

Sequence | folding stability dG unfold [1] [kcal/mol] | folding stability dG unfold [2] [kcal/mol] | folding stability dG unfold [3] [kcal/mol]
SMIKPDEVVEKIEFTFPDGVAGDTRTFPVPEGSVIVYIDLGEPVYVMEILEDGSVKIEPVPEEVAKELAKSA [r9_1144_TrMRF] | 0.3 ± 0.12 | 0.115 ± 0.1 | 0.37 ± 0.048
SMIPVEELVRLAAERLGLPEEELENIEEVEPFEVEPLPDNAVRVKLRIRLKNPESDEVTELDIEIVDPGGSA [r9_230_TrMRF] | 1.92 ± 0.072 | 2.21 ± 0.033 | 1.2 ± 0.021
SMIQVDIKPDAINVTVTKEGKSVTVPMDLEELEELLKKGVEKVEIKSPDPEVLEKIKELVEKAGVPIELKSA [r9_810_JUSTAS] | 1.02 ± 0.25 | 0.686 ± 0.06 | 1.09 ± 0.1
SMISLEKETSLPPEEARRAVERFLAELPEVERLLSVEVREDPDSYTVSLTLEGGAVSPEVLEAIERALAASA [r9_195_JUSTAS] | 2.63 ± 0.062 | 2.71 ± 0.039 | 2.54 ± 0.053
SMKIEKKDGKYVLTIKIKADSVEEVLNALKKLGIKFPPGVKEIKVVKVEEVNGEVYITIVVDTEEALKALSA [r9_820_TrROS_Hall] | 2.6 ± 0.28 | 2.34 ± 0.09 | 2.93 ± 0.13
SMKIEPHPDGTVTFTIPAEFPDIPAEEIAALIEKALPPGVRLGEEITVERDPETGEVRVTAKVEVPPDAVSA [r9_1011_TrMRF] | 2.74 ± 0.12 | 2.81 ± 0.073 | 2.49 ± 0.12
SMKILIVTKEKAEELAEAIKKKFPNIEIEVFDTPEEAEEAAKKGDIVIVIGSEEEAKELAKKLKVKVIKISA [r9_380_TrROS_Hall] | 2.86 ± 0.45 | 3.39 ± 0.12 | 2.19 ± 0.09
SMKITPLPGPEEVAEFPETGETITITRDPSTGLVTVTYNGPGTPVTATTDPAVGTVTVNTPDGKITIPLTSA [r9_541_JUSTAS] | 0.346 ± 0.072 | -0.512 ± 0.22 | 0.669 ± 0.02
SMKIYILSSGDKEKVLAEVKEKYPDLEIELFEDIEEAKKAAEKGNLLISNGDEELAKEFEEKYNVKVIIKSA [r9_380_JUSTAS] | 1.6 ± 0.14 | 1.65 ± 0.041 | 1.41 ± 0.039
SMKKGEKIKIEKKKDGTLKITLPDGKEITVPLKDIKIEIKDGKIKITVFKDGKKIAEFELKIKKKKKKKKSA [r9_901_TrROS_Hall] | 2.31 ± 0.42 | 2.64 ± 0.11 | 1.71 ± 0.07
SMKPEEVKVIAEIEIEVNGKKIKIKIVKKKDGTVRVEIEVDGKKIEIEVKVKSKEEAKKILEELLKKLGISA [r9_758_TrROS_Hall] | 2.41 ± 0.52 | 1.53 ± 0.14 | 2.93 ± 0.4
SMKPNEKFPSLEEVKEAAKRIAEEIEKKTGKKIEVEVKVETVKKEDGKEVVKITIVDKKTKKVIKEIEIKSA [r9_794_TrROS_Hall] | 1.58 ± 0.12 | 0.783 ± 0.076 | 2.18 ± 0.096
SMKPYVYTHPEGITIPMFVLPDGTIKIEVTAFDPNNPVPLGKATATMDPATGTLNLTLPNGTSLSYTIPASA [r9_56_JUSTAS] | 2.5 ± 0.16 | 2.46 ± 0.1 | 2.45 ± 0.065
SMKSKISEIKSVEKKGNKVVVKVKIKAPKGKAYFIDSNGNIIKEVNLGKEVELEITFDSNNESFKVIVTDSA [r9_917_TrMRF] | 1.84 ± 0.099 | 1.99 ± 0.032 | 1.34 ± 0.065
SMKVEKLEDGTYIIVNEDGSITEIKVYPDKVEVKTYPVLYKMPDGRWFETKEEAEKFEEETGVPILEEDLSA [r9_660_TrMRF] | 0.759 ± 0.23 | 0.887 ± 0.27 | 0.787 ± 0.11
SMKVKIKIEVYKPENKLIVKVYFPEIGKEIVFEFDSLEGLFEKIKKELGLKEENIEIVEVKVKEVDPSELSA [r9_909_TrMRF] | 2.2 ± 0.18 | 1.93 ± 0.048 | 2.21 ± 0.16
SMKVKTYTFKIKVDGKEIEVTVEELEDGELLVTIKIKENGKEKTIVVSREELEELLKALLPPGAEIEKVESA [r9_384_TrROS_Hall] | 3.33 ± 0.099 | 3.49 ± 0.055 | 2.99 ± 0.13
SMKVTVSVTYNPETQTLELRFTVYERDPNGNWVPTASFPITLPVTIPAPPVPVVEVPEDATLPEDVALADSA [r9_888_TrMRF] | 4.99 ± 0.33 | 5.14 ± 0.21 | 3.64 ± 0.18
SMLIVAEGDTVTVELIATYTVVERDPDDPNRYTLRAFPLPLTFTVDPNDPEALRRFLEAAPPGFTPVIVGSA [r9_476_TrMRF] | 3.17 ± 0.13 | 3.43 ± 0.039 | 2.62 ± 0.092
SMLSEMPPEELAERIARELGLVGAEVEAVRVGDVLLVPLRLRDPVRDEVRLLVLLVVPEDDGRVLLTDLSSA [r9_1042_TrMRF] | 2.16 ± 0.091 | 2.5 ± 0.029 | 1.46 ± 0.027
SMMKVKVRITFEDGEEVEIEIEMSREELKNKIEELIKELAEKEGKEVKEVKIEIVDEKTNETYTFTIKVKSA [r9_1193_TrROS_Hall] | 3.65 ± 0.3 | 3.92 ± 0.088 | 4.14 ± 0.19
